From article PMC13429012 (Structure (London, England : 1993), 2016) come the findings set out here.

One assay has as its target Rvb2(E166K) (Saccharomyces cerevisiae, UniProt Q12464 1-471, E166K). The experiment in a line: SEC. A general note: Size exclusion chromatography separates by hydrodynamic size, large species first.
The next assay has as its target Rvb2 (Saccharomyces cerevisiae, UniProt Q12464 1-471). The experiment in a line: SEC.

Chain of Rvb2 (Q12464 whole entry): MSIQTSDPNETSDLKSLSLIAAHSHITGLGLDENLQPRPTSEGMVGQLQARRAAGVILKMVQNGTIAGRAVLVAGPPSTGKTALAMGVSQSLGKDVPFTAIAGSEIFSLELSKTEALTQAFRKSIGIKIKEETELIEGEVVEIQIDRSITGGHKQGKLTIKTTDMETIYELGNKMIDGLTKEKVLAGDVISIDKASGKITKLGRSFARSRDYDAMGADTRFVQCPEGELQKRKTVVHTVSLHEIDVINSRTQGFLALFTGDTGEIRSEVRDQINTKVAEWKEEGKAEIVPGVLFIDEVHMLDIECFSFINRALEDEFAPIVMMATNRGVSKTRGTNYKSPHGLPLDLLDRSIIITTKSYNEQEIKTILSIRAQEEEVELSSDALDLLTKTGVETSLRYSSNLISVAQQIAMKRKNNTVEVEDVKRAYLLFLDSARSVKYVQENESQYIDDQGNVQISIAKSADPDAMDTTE
Chain of Rvb2(E166K) (Q12464 whole entry E166K): as the sequence (Q12464 whole entry) above, with E166K counted along it

B1: Rvb1 (natural protein, Saccharomyces cerevisiae, UniProt Q03940 1-463, looked up)
chain: MVAISEVKENPGVNSSNSGAVTRTAAHTHIKGLGLDESGVAKRVEGGFVGQIEAREACGVIVDLIKAKKMSGRAILLAGGPSTGKTALALAISQELGPKVPFCPLVGSELYSVEVKKTETLMENFRRAIGLRIKETKEVYEGEVTELTPEDAENPLGGYGKTISHVIVGLKSAKGTKTLRLDPTIYESIQREKVSIGDVIYIEANTGAVKRVGRSDAYATEFDLETEEYVPLPKGEVHKKKEIVQDVTLHDLDVANARPQGGQDVISMMGQLLKPKKTEITEKLRQEVNKVVAKYIDQGVAELIPGVLFIDEVNMLDIEIFTYLNKALESNIAPVVVLASNRGMTTVRGTEDVISPHGVPPDLIDRLLIVRTLPYDKDEIRTIIERRATVERLQVESSALDLLATMGTETSLRYALQLLAPCGILAQTSNRKEIVVNDVNEAKLLFLDAKRSTKILETSANYL
B1: the binding result in the assay with Rvb2(E166K) is “binds”.

B2: Rvb1(E150K) (natural protein, Saccharomyces cerevisiae, UniProt Q03940 1-463, looked up)
chain: MVAISEVKENPGVNSSNSGAVTRTAAHTHIKGLGLDESGVAKRVEGGFVGQIEAREACGVIVDLIKAKKMSGRAILLAGGPSTGKTALALAISQELGPKVPFCPLVGSELYSVEVKKTETLMENFRRAIGLRIKETKEVYEGEVTELTPKDAENPLGGYGKTISHVIVGLKSAKGTKTLRLDPTIYESIQREKVSIGDVIYIEANTGAVKRVGRSDAYATEFDLETEEYVPLPKGEVHKKKEIVQDVTLHDLDVANARPQGGQDVISMMGQLLKPKKTEITEKLRQEVNKVVAKYIDQGVAELIPGVLFIDEVNMLDIEIFTYLNKALESNIAPVVVLASNRGMTTVRGTEDVISPHGVPPDLIDRLLIVRTLPYDKDEIRTIIERRATVERLQVESSALDLLATMGTETSLRYALQLLAPCGILAQTSNRKEIVVNDVNEAKLLFLDAKRSTKILETSANYL
With B2, the binding result with Rvb2 is given as “binds”.

B3: Rvb1(E146R) (natural protein, Saccharomyces cerevisiae, UniProt Q03940 1-463, looked up)
chain: MVAISEVKENPGVNSSNSGAVTRTAAHTHIKGLGLDESGVAKRVEGGFVGQIEAREACGVIVDLIKAKKMSGRAILLAGGPSTGKTALALAISQELGPKVPFCPLVGSELYSVEVKKTETLMENFRRAIGLRIKETKEVYEGEVTRLTPEDAENPLGGYGKTISHVIVGLKSAKGTKTLRLDPTIYESIQREKVSIGDVIYIEANTGAVKRVGRSDAYATEFDLETEEYVPLPKGEVHKKKEIVQDVTLHDLDVANARPQGGQDVISMMGQLLKPKKTEITEKLRQEVNKVVAKYIDQGVAELIPGVLFIDEVNMLDIEIFTYLNKALESNIAPVVVLASNRGMTTVRGTEDVISPHGVPPDLIDRLLIVRTLPYDKDEIRTIIERRATVERLQVESSALDLLATMGTETSLRYALQLLAPCGILAQTSNRKEIVVNDVNEAKLLFLDAKRSTKILETSANYL
For B3, the binding result with Rvb2 is given as “binds”.

B4: Rvb1(K161E) (natural protein, Saccharomyces cerevisiae, UniProt Q03940 1-463, looked up)
chain: MVAISEVKENPGVNSSNSGAVTRTAAHTHIKGLGLDESGVAKRVEGGFVGQIEAREACGVIVDLIKAKKMSGRAILLAGGPSTGKTALALAISQELGPKVPFCPLVGSELYSVEVKKTETLMENFRRAIGLRIKETKEVYEGEVTELTPEDAENPLGGYGETISHVIVGLKSAKGTKTLRLDPTIYESIQREKVSIGDVIYIEANTGAVKRVGRSDAYATEFDLETEEYVPLPKGEVHKKKEIVQDVTLHDLDVANARPQGGQDVISMMGQLLKPKKTEITEKLRQEVNKVVAKYIDQGVAELIPGVLFIDEVNMLDIEIFTYLNKALESNIAPVVVLASNRGMTTVRGTEDVISPHGVPPDLIDRLLIVRTLPYDKDEIRTIIERRATVERLQVESSALDLLATMGTETSLRYALQLLAPCGILAQTSNRKEIVVNDVNEAKLLFLDAKRSTKILETSANYL
B4: in the assay with Rvb2, the binding result is “binds”.

B5: Rvb1(R180E) (natural protein, Saccharomyces cerevisiae, UniProt Q03940 1-463, looked up)
chain: MVAISEVKENPGVNSSNSGAVTRTAAHTHIKGLGLDESGVAKRVEGGFVGQIEAREACGVIVDLIKAKKMSGRAILLAGGPSTGKTALALAISQELGPKVPFCPLVGSELYSVEVKKTETLMENFRRAIGLRIKETKEVYEGEVTELTPEDAENPLGGYGKTISHVIVGLKSAKGTKTLELDPTIYESIQREKVSIGDVIYIEANTGAVKRVGRSDAYATEFDLETEEYVPLPKGEVHKKKEIVQDVTLHDLDVANARPQGGQDVISMMGQLLKPKKTEITEKLRQEVNKVVAKYIDQGVAELIPGVLFIDEVNMLDIEIFTYLNKALESNIAPVVVLASNRGMTTVRGTEDVISPHGVPPDLIDRLLIVRTLPYDKDEIRTIIERRATVERLQVESSALDLLATMGTETSLRYALQLLAPCGILAQTSNRKEIVVNDVNEAKLLFLDAKRSTKILETSANYL
In the case of B5, the binding result in the assay with Rvb2 is “binds”.
